Experiments:
[1] = target: T1, recombinant SARS-COV-2 N protein (SARS-COV-2, UniProt P0DTC9 1-419); experiment: SPR (UA Biotech); orientation not stated
T1 construct: also called nucleocapsid protein

[2] = target: T1, recombinant SARS-COV-2 N protein; experiment: direct ELISA, N protein coated at 5 µg/mL, pNPP colour development
[3] = target: T1, recombinant SARS-COV-2 N protein; experiment: direct ELISA, N protein coated at 5 µg/mL, pNPP colour development for 90 min

Binder	Kd [1]	koff [1]	kon [1]	fold of OD405 nm over control group (blank blocked wells) [2]	fold of OD405 nm over control group (blank blocked wells) at 90 min [3]
SARS-COV-2 N protein-specific single-chain antibody H6 (scFv, V domains shown, also called H6 antibody; scFv H6; not shown: C-terminal tags from the pHENHi vector (c-myc and a His tag, with the NotI junction)) VH: EVKLAESGPELVRPGVSVKISCKGSGYTFTDYPMHWVKQSHAKSLEWIGVISTYSGNTNYNQKFRGKATMTVDKSSSTAYMELARLTSEDSAIYYCTRGGNYGFDPWGQGTTLTVSS	0.298 nM	0.000286 s⁻¹	958000 M⁻¹ s⁻¹		
H6-AP fusion protein (single-chain antibody H6 fused to alkaline phosphatase) (other, also called fusion protein H6-AP) MAEVKLAESGPELVRPGVSVKISCKGSGYTFTDYPMHWVKQSHAKSLEWIGVISTYSGNTNYNQKFRGKATMTVDKSSSTAYMELARLTSEDSAIYYCTRGGNYGFDPWGQGTTLTVSSAKTTAPSVGGGGSGGGGSGGGGSDIQMTQSHKFLSTSVGDRVNITCKASQDVGTAVAWYQQKPGQSPKLLIYWASTRHTGVPDRFTGSGSGTDFTLTITNVQSEDLAEYFCQQYSSYPLTFGSGTKIEMKRAVDSSGSTSGSGKPGSGEGSTAAAARAPEMPVLENRAAQGDITAPGGARRLTGDQTAALRDSLSDKPAKNIILLIGDGMGDSEITAARNYAEGAGGFFKGIDALPLTGQYTHYALNKKTGKPDYVTSSAASATAWSTGVKTYNGALGVDIHEKDHPTILEMAKAAGLATGNVSTAELQDATPAALVAHVTSRKCYGPSATSEKCPGNALEKGGKGSITEQLLNARADVTLGGGAKTFAETATAGEWQGKTLREQAQARGYQLVSDAASLNSVTEANQQKPLLGLFADGNMPVRWLGPKATYHGNIDKPAVTCTPNPQRNDSVPTLAQMTDKAIELLSKNEKGFFLQVEGASIDKQDHAANPCGQIGETVDLDEAVQRALEFAKKEGNTLVIVTADHAHASQIVAPDTKAPGLTQALNTKDGAVMVMSYGNSEEDSQEHTGSQLRIAAYGPHAANVVGLTDQTDLFYTMKAALGDIAHHHHHH				16 fold	31 fold
